Tests used:
[1] = biological target: T1, c-Met protein (UniProt P08581 25-932, limits assumed); assay: ELISA, plate coated with c-Met protein at 2 ug/ml, HRP detection antibody
T1 construct: The construct is not described; also called c-Met antigen
Method: The c-Met protein was prepared with a diluent to a final concentration of 2 μg/ml, and added to a microplate at 100 μl per well, overnight at 4° C. The solution in the well was discarded, and the plate was washed three times with PBST. The plate was added with a blocking solution at 300 μl/well and incubated at 37° C. for 2 h. The solution in the well was discarded, and the plate was washed three times with PBST. […] The solution in the well was discarded, and the plate was washed three times with PBST. HRP detection antibody was prepared by adding diluent at a dilution of 1:5000, added at 100 μl per well, and incubated at 37° C. for 1 h. The solution in the well was discarded, and the plate was washed three times with PB ST. The plate was added with TMB color developing solution, incubated at room temperature for 2 min, and then added with Elisa stop solution.

[2] = biological target: T2, soluble ED protein (UniProt P08581 25-932, limits assumed); assay: ELISA, plate coated with soluble ED protein, HRP anti-human IgG Fc detection
T2 construct: domain: ED; It is read here as the c-Met extracellular domain because the antibodies are anti-c-Met
T2 sequence (P08581 25-932 limits assumed): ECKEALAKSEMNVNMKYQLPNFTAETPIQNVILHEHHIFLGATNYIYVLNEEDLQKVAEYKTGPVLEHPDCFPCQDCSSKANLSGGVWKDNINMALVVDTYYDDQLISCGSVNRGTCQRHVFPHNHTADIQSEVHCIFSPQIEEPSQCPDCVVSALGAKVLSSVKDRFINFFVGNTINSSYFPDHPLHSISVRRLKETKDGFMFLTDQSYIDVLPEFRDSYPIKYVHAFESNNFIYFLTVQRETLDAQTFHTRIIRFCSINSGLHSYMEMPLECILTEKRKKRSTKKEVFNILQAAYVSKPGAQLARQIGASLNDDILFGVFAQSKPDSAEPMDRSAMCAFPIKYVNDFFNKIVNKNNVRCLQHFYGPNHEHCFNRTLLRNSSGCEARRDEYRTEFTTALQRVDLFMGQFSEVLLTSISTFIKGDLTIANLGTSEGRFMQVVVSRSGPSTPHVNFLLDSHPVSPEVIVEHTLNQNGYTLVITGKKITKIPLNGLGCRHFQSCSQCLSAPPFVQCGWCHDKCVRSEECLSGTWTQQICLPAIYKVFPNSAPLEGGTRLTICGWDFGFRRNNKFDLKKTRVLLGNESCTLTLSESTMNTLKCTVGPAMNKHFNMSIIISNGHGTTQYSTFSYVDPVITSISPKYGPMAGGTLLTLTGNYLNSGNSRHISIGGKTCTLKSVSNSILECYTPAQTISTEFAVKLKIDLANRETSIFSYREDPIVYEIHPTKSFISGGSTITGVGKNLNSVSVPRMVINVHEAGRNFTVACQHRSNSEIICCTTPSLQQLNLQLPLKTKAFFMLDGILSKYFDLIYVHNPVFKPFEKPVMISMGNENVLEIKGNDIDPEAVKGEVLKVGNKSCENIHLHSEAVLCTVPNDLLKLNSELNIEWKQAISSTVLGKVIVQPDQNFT
Method: The affinities of chimeric cAAJ8D6 and the humanized antibody AAJ8D6 were determined by ELISA. A 96-well plate was coated with soluble ED protein and then incubated with diluted antibodies. ED-related antibodies were detected with an HRP-conjugated goat F(ab′)2 anti-human IgG Fc-specific secondary antibody.

T1 sequence (P08581 25-932 limits assumed): as above

B1: ABT-700 (telisotuzumab) (antibody, V domains shown)
VH: QVQLVQSGAEVKKPGASVKVSCKASGYIFTAYTMHWVRQAPGQGLEWMGWIKPNNGLANYAQKFQGRVTMTRDTSISTAYMELSRLRSDDTAVYYCARSEITTEFDYWGQGTLVTVSS
VL: DIVMTQSPDSLAVSLGERATINCKSSESVDSYANSFLHWYQQKPGQPPKLLIYRASTRESGVPDRFSGSGSGTDFTLTISSLQAEDVAVYYCQQSKEDPLTFGGGTKVEIKR
Q: B1 was tested. Which EC50 [1] did it give?
A: 1.33 ng/mL

B2: anti-c-Met humanized antibody AAJ8D6 (antibody, human IgG1, kappa, V domains shown)
VH: QVQLEQSGPEVVKPGASVKVSCKASGYSFTSYWMHWVRQAPGQGLEWMGMIDPSDSESRLNQKFKDRVTMTVDTPTSTVYMELSSPRSEDTAVYYCARSGYHGTSYWYFDVWGQGTLVTVSS
VL: DIVMTQSPLSLPVTPGEPASISCRSSKSLLHSDGITYLYWYLQKPGQSPQLLIYQMSNLASGVPDRFSGSGSGTDFTLKISRVEAEDVGVYYCAQNLELPPTFGGGTKVEIKR
notes: also called AAJ8D6 antibody
Q: B2 was tested. Which EC50 [1] did it give?
A: 0.54 ng/mL

Q: What about the EC50 [2] of the same binder?
A: 3.53 ng/mL

Source: patent publication US20240165253A1 (REMEGEN, published 2024)
